Data published in patent US20160108093A1 (WISCONSIN ALUMNI RESEARCH FOUNDATION, published 2016).
Where no end group is shown, it is not given here. [ ]: non-standard residue; d: D form.

B1: CG3 (peptide)
peptide: cyclo(SKVVT[dP]PRYTIAALLSPYSYSQ)
SMILES: CC[C@H](C)[C@@H]1NC(=O)[C@H]([C@@H](C)O)NC(=O)[C@H](Cc2ccc(O)cc2)NC(=O)[C@H](CCCNC(=N)N)NC(=O)[C@@H]2CCCN2C(=O)[C@H]2CCCN2C(=O)[C@H]([C@@H](C)O)NC(=O)[C@H](C(C)C)NC(=O)[C@H](C(C)C)NC(=O)[C@H](CCCCN)NC(=O)[C@H](CO)NC(=O)[C@H](CCC(N)=O)NC(=O)[C@H](CO)NC(=O)[C@H](Cc2ccc(O)cc2)NC(=O)[C@H](CO)NC(=O)[C@H](Cc2ccc(O)cc2)NC(=O)[C@@H]2CCCN2C(=O)[C@H](CO)NC(=O)[C@H](CC(C)C)NC(=O)[C@H](CC(C)C)NC(=O)[C@H](C)NC(=O)[C@H](C)NC1=O
B2: CG2 (peptide)
peptide: cyclo(SKV[dP]PTIAALLSPYSYSQ)
SMILES: CC[C@H](C)[C@@H]1NC(=O)[C@H]([C@@H](C)O)NC(=O)[C@@H]2CCCN2C(=O)[C@H]2CCCN2C(=O)[C@H](C(C)C)NC(=O)[C@H](CCCCN)NC(=O)[C@H](CO)NC(=O)[C@H](CCC(N)=O)NC(=O)[C@H](CO)NC(=O)[C@H](Cc2ccc(O)cc2)NC(=O)[C@H](CO)NC(=O)[C@H](Cc2ccc(O)cc2)NC(=O)[C@@H]2CCCN2C(=O)[C@H](CO)NC(=O)[C@H](CC(C)C)NC(=O)[C@H](CC(C)C)NC(=O)[C@H](C)NC(=O)[C@H](C)NC1=O

What was measured:
Aβ (1-42) = Aβ (1-42) (UniProt P05067 672-713); experiment: cell-based or functional assay
[1] = target: the molecule itself; experiment: self-association: PICUP cross-linking of the peptide alone at 36 µM, gel, silver staining
Method: Peptides were also cross-linked by PICUP and analyzed for self-association. […] Cross-linked samples were then heated at 95° C. for 5 min and separated on a 10-20% Tris-Tricine gradient gel. Peptides were visualized by silver staining (SilverStain Kit, Pierce, Rockford, Ill.).
Peptide self-assembly was probed by photo-induced crosslinking (PICUP) followed by gel electrophoresis.

Binder	Aβ toxicity, MTS assay with primary mouse neuronal cultures (10 µM Aβ) (Aβ (1-42))	binding result [1]
B1	10 µM	–
B2	10 µM	–
SKVVT[dP]PRYTIAALLSPYSYSQ [LG3]	10 µM	–
Ac-PRRYTIAALLSPYSWS-NH2 (also called 16-mer linear peptide) [G16]	–	binds
